Reference: the supplement of paper PMC7877785
± gives the uncertainty stated by the source.

Experiment: self-splicing fitness, log relative to wild type (ln ratio); higher = more splicing; Tetrahymena group I intron in knt gene, E. coli kanamycin selection, DiMSum; sequences stand for … in CUCUCU…GGAGGGAAAAGUUAUCAGGCAUGCACCUGGUAGCUAGUCUUUAAACCAAUAGAUUGCAUCGGUUUAAAAGGCAAGACCGUCAAAUUGCGGGAAAGGGGUCAACAGCCGUUCAGUACCAAGUCUCAGGGGAAACUUUGAGAUGGCCUUGCAAAGGGUAUGGUAAUAAGCUGACGGACAUGGUCCUAACCACGCAGCCAAGUCCUAAGUCAACAGAUCUUCUGUUGAUAUGGAUGCAGUUCACAGACUAAAUGUCGGUCGGGGAAGAUGUAUUCUUCUCAUAAGAUAUAGUCGGACCUCUCCUUAAUGGGAGCUAGCGGAUGAAGUGAUGCAACACUGGAGCCGCUGGGAACUAAUUUGUAUGCGAAAGUAUAUUGAUUAGUUUUGGAGUACUCGUGGUCG
Outline: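 Library with all eight P1ex-region intron nucleotides randomised, intron inside the knt kanamycin-resistance gene on pET-22b(+), in E. coli BL21(DE3). Cells grew overnight at 37°C or 30°C on LB agar with or without 25 μg/mL kanamycin (plus 100 μg/mL carbenicillin, 50 μM IPTG, 0.2% rhamnose), in six replicate transformations. Pooled colonies were amplicon-sequenced on Illumina HiSeq 2500. DiMSum fitness is the error-weighted combination of wild-type-normalised replicate fold changes, kanamycin versus none.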

Row | Sequence | self-splicing fitness (ln) (30 °C) | self-splicing fitness (ln) (37 °C)
1 | UUUGAGCAAUAUUACGUCGU | -3.91 ± 0.34 | -3.09 ± 0.24
2 | CAAGAGCAAUAUUACGUGGC | -3.77 ± 0.2 | -3.41 ± 0.28
3 | AGGCAGCAAUAUUACGCUCC | -3.69 ± 0.4 | -2.01 ± 0.33
4 | CGGGAGCAAUAUUACGGGGG | -2.37 ± 0.3 | –
5 | UGAAAGCAAUAUUACGACCA | -0.558 ± 0.11 | 0.362 ± 0.14
6 | CUCCAGCAAUAUUACGGAAA | -2.25 ± 0.13 | -1.55 ± 0.12
7 | UGCUAGCAAUAUUACGCAAA | – | -0.861 ± 0.16
8 | UGAGAGCAAUAUUACGAGCA | – | 0.211 ± 0.27
9 | AACAAGCAAUAUUACGUUAA | -2.55 ± 0.15 | -1.67 ± 0.14
10 | CUGCAGCAAUAUUACGACGC | -3.79 ± 0.27 | -3.06 ± 0.29
11 | AGGAAGCAAUAUUACGUGCU | -2.18 ± 0.17 | -0.868 ± 0.16
12 | GGGCAGCAAUAUUACGCCGC | -3.33 ± 0.22 | -2.27 ± 0.31
13 | GAAGAGCAAUAUUACGAUCA | -2.36 ± 0.21 | -1.01 ± 0.19
14 | AUUGAGCAAUAUUACGUUCA | -1.59 ± 0.17 | -0.11 ± 0.17
15 | CCUGAGCAAUAUUACGAUUA | – | -2.35 ± 0.33
16 | CUCAAGCAAUAUUACGAUGU | -2.6 ± 0.11 | -1.21 ± 0.13
17 | GCCGAGCAAUAUUACGACAG | -1.9 ± 0.22 | -2.16 ± 0.23
18 | GGAUAGCAAUAUUACGGUUC | -2.54 ± 0.23 | -2.05 ± 0.28
19 | GUUAAGCAAUAUUACGCGAU | -3.1 ± 0.21 | -2.65 ± 0.29
20 | AAACAGCAAUAUUACGUCAA | -2.45 ± 0.11 | -1.44 ± 0.087
21 | GGAGAGCAAUAUUACGUCGC | -1.99 ± 0.39 | 0.588 ± 0.38
22 | ACGGAGCAAUAUUACGCUCC | – | -1.28 ± 0.37
23 | GCGGAGCAAUAUUACGUGUA | -3.49 ± 0.37 | -2.58 ± 0.38
24 | UUAAAGCAAUAUUACGAAAC | – | -1.33 ± 0.29
25 | CGUAAGCAAUAUUACGACGC | -1.86 ± 0.3 | -2.02 ± 0.28

Row | Sequence | self-splicing fitness (ln) (30 °C) | self-splicing fitness (ln) (37 °C)
26 | CAUCAGCAAUAUUACGCAGG | -0.441 ± 0.062 | -1.15 ± 0.079
27 | UGCGAGCAAUAUUACGACAC | -2.71 ± 0.3 | 0.803 ± 0.27
28 | ACCGAGCAAUAUUACGCCAG | – | -1.35 ± 0.27
29 | AACCAGCAAUAUUACGUAUG | -2 ± 0.076 | -0.882 ± 0.072
30 | AUCCAGCAAUAUUACGCUGC | -3.85 ± 0.19 | -1.59 ± 0.15
31 | AUAGAGCAAUAUUACGUCGC | -2.68 ± 0.2 | -0.381 ± 0.18
32 | GCCUAGCAAUAUUACGAGCU | -1.03 ± 0.14 | -1.51 ± 0.14
33 | ACAAAGCAAUAUUACGUCGU | -2.74 ± 0.093 | -2.05 ± 0.12
34 | CGGUAGCAAUAUUACGUGCC | -1.18 ± 0.14 | -4.06 ± 0.34
35 | CUGGAGCAAUAUUACGGCGG | -0.649 ± 0.16 | -1.44 ± 0.26
36 | GCCGAGCAAUAUUACGUCGU | -0.646 ± 0.081 | -0.197 ± 0.1
37 | CAAUAGCAAUAUUACGGAAG | -1.36 ± 0.074 | -0.459 ± 0.09
38 | ACUGAGCAAUAUUACGAUAU | -4.44 ± 0.36 | -2.8 ± 0.2
39 | GGUCAGCAAUAUUACGUGCA | 0.0844 ± 0.11 | 0.539 ± 0.15
40 | UCAUAGCAAUAUUACGCCAU | -3.49 ± 0.36 | -1.49 ± 0.33
41 | AAGAAGCAAUAUUACGCUAG | -2.36 ± 0.14 | -0.458 ± 0.13
42 | GAGCAGCAAUAUUACGCGUU | -3.08 ± 0.12 | -1.32 ± 0.12
43 | GCCUAGCAAUAUUACGGAUA | -1.01 ± 0.17 | -0.705 ± 0.13
44 | GGAUAGCAAUAUUACGAGAC | -2.63 ± 0.25 | -2.63 ± 0.48
45 | GCAUAGCAAUAUUACGAAGG | -2.02 ± 0.2 | -1.31 ± 0.22
46 | CCGGAGCAAUAUUACGAGGU | -3.56 ± 0.46 | -2.6 ± 0.31
47 | AACUAGCAAUAUUACGGACU | -1.36 ± 0.24 | 0.037 ± 0.28
48 | UCGCAGCAAUAUUACGGCAU | -1.99 ± 0.074 | -0.415 ± 0.077
49 | ACGGAGCAAUAUUACGUGAC | -2.68 ± 0.28 | -2.16 ± 0.42
50 | ACAAAGCAAUAUUACGAAUG | -1.68 ± 0.057 | -1.02 ± 0.085
